Legend:
[1] = biological target: FLAG-hAPRIL (secreted form, supernatant of 293T cells transfected with pCR3-hAPRIL) (human) (UniProt O75888); assay: ELISA, FLAG-hAPRIL captured by coated anti-FLAG polyclonal antibody
[2] = biological target: T1, Recombinant human APRIL (R&D Systems) (human, UniProt O75888 105-250); assay: bio-light interferometry (Octet), antibody amine-coupled to the biosensor, APRIL at 1 and 2 µg/ml, 1:1 global fit
T1 construct: Bought protein; also called recombinant APRIL
T1 sequence (looked up): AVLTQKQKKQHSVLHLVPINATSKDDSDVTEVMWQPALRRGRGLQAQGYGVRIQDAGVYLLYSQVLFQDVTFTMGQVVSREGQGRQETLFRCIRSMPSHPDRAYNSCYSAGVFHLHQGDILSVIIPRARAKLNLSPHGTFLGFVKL
Description: (§1) To further characterize the binding characteristics of the antibodies, each was profiled using bio-light interferometry on the Octet system (ForteBio, Menlo Park, Calif.) to elucidate binding kinetics and calculate equilibrium binding constants. This assay was performed by coupling purified hAPRIL.01A and hAPRIL.03A antibodies to amine-reactive biosensors (Fortebio) using standard amine chemistry. Recombinant human APRIL (R&D Systems) binding to and dissociation from the biosensors was then observed at two concentrations, 1 and 2 μg/ml. Specifically, amine-reactive biosensors were pre-wetted by immersing them in wells containing 0.1M MES pH=5 for 2 minutes. The biosensors were then activated using a 0.1M NHS/0.4M EDC mixture for 5 minutes. hAPRIL.01A and hAPRIL.03A antibodies were coupled by immersing the biosensors in a solution of 5 μg/mL of the antibody for 18 minutes. The biosensor surface was quenched using a solution of 1M ethanolamine pH 8.5 for 7 minutes. Biosensors were equilibrated in PBS for 5 minutes. […] Dissociation was measured after transfer of the biosensors into PBS and monitoring of the interferometry signal for 20 minutes. The observed on and off rates (kobs and kd) were fit using a 1:1 binding global fit model, and the equilibrium binding constant KD was calculated (see Table 1).

[3] = biological target: T2, FLAG-hAPRIL (secreted form, supernatant of 293T cells transfected with pCR3-hAPRIL) (human, UniProt O75888 110-250, limits assumed); assay: blocking ELISA, FLAG-APRIL supernatant pre-mixed with titrated antibody, binding to coated TACI-Fc (sheet: coated at 1 µg/ml) detected with anti-Flag-HRP [right graph]
T2 construct: Used as cell supernatant; also called FLAG-APRIL; soluble APRIL in conditioned medium; not shown: FLAG tag
T2 sequence (looked up): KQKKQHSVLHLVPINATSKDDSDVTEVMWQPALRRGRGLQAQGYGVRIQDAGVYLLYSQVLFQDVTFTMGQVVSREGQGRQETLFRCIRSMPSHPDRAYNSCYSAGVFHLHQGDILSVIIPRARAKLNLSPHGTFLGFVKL
Description: (§2) To study whether the blocking characteristics of hAPRIL.01A and hAPRIL.03A are unique, all known commercially available anti-APRIL antibodies were tested for their ability to block the interaction of FLAG-hAPRIL to BCMA-Fc and TACI-Fc (FIGS. 3A and 3B). Blockade of receptor binding was studied using an ELISA. […] The plate was then washed with PBS/0.2% Tween and then incubated with for 1 hour at 37° C. with 100 μl PBS/5% BSA per well. The plate was then washed four times with PBS/0.2% Tween. In a separate plate APRIL monoclonal antibodies were pre-mixed with APRIL supernatant and incubated for 30 minutes on ice. Conditioned medium containing soluble APRIL was diluted 1 in 4 and mixed with an equal volume of PBS containing the antibodies titrated in doubling dilutions starting with 5 μg/ml. 100 μl of the pre-incubated mix was transferred to the ELISA plate and incubated for 2 hours at 37° C. The plate was then washed four times with PBS/0.2% Tween. Anti-Flag-HRP antibody was then diluted in PBS at a concentration of 1:1000 and then 100 μl of this added to each well and incubated for 1 hour at 37° C. The plate was then washed four times with PBS/0.2% Tween and then 100 μl of ABTS added to each well (the ABTS was diluted to the ratio 10 ml of reagent plus 5 μl of H₂O₂ made immediately before addition). The colour was allowed to develop and then the OD at 405 nm read on an ELISA plate reader. […]

[4] = biological target: T2, FLAG-hAPRIL (secreted form, supernatant …); assay: blocking ELISA: antibody pre-incubated with FLAG-hAPRIL, binding to coated BCMA-Fc (competitor) detected
Description: (§3) Blocking abilities of hAPRIL.01A and hAPRIL.03A were confirmed using purified antibodies. Maxisorp 96-well plates were coated with either BCMA-Fc (R&D Systems) or TACI-Fc (R&D Systems) at 50 ng/well overnight at 4° C. and blocked with 10% Goat serum/PBST for 1 hour at RT. FLAG-hAPRIL containing supernatants were pre-incubated with hAPRIL.01A, hAPRIL.03A, and Aprily-5 antibodies (10 μg/ml high test with 10-fold dilutions in triplicates) for 1 h at RT. Plates were washed with PBST 3 times, and bound FLAG-hAPRIL was detected by incubation with 1 μg/ml anti-FLAG BioM2-biotin antibody (Sigma) and 1:2,000 Streptavidin-HRP (Southern Biotechnology) for 1 hour each at RT. After the final PBST wash, APRIL-bound BCMA-Fc was visualized with OptiEIA TMB substrate (BD Biosciences). […] The concentration of half-maximum inhibition (IC₅₀) was determined for hAPRIL.01A as 1.2 and 0.4 nM for BCMA-Fc and TACI-Fc, respectively. The IC₅₀ for hAPRIL.03A to TACI-Fc was determined as 1.3 nM.

[5] = biological target: T2, FLAG-hAPRIL (secreted form, supernatant …); assay: ELISA, FLAG-hAPRIL captured by coated anti-FLAG polyclonal antibody
Description: Protein-based ELISA experiments using purified hAPRIL.01A and hAPRIL.03A antibodies were performed to determine apparent binding affinities (reported as EC₅₀ values). Binding was compared to mouse anti-hAPRIL IgG1 Aprily-5 (Alexis). Maxisorp 96-well immunoplates (Nunc) were coated with either rabbit anti-FLAG polyclonal antibody (Sigma) or BCMA-Fc (R&D Systems) at 50 ng/well in PBS overnight at 4° C. and blocked with 10% Goat serum/PBST for 1 hour at RT. Plates were washed with PBST 3 times and incubated with supernatant (1:4 in PBS) containing FLAG-hAPRIL for 1 hour at RT. Plates were again washed with PBST 3 times and incubated with hAPRIL.01A, hAPRIL.03A, and Aprily-5 antibodies (10 μg/ml high test with 10-fold dilutions in triplicates) for 1 h at RT. After three washes with PBST, bound antibodies were detected with goat anti-mouse IgG-HRP (1:2,000) (Southern Biotechnology) for 1 hour at RT. Plate was washed three times with PBST, and APRIL-reactivity was visualized with OptiEIA TMB substrate (Becton Dickinson). The concentration for half-maximal binding is reported as a measure of relative binding affinity. When FLAG-hAPRIL was captured by the anti-FLAG antibody (FIG. 2A), EC₅₀ values for hAPRIL.01A, hAPRIL.03A and Aprily-5 were calculated as 2.2, 1.4, and 1.7 nM, respectively. […] In contrast, binding of hAPRIL.03A to the APRIL-BCMA complex was observed.

[6] = biological target: T1, Recombinant human APRIL (R&D Systems); assay: bio-light interferometry (Octet), antibody amine-coupled to the biosensor, APRIL at 1 and 2 µg/ml, 1:1 global fit; column printed as kobs
Description: as §1

[7] = biological target: T2, FLAG-hAPRIL (secreted form, supernatant …); assay: blocking ELISA, FLAG-APRIL supernatant pre-mixed with titrated antibody, binding to BCMA-Fc coated at 1 µg/ml detected with anti-Flag-HRP [left graph]
Description: (§4) To study whether the blocking characteristics of hAPRIL.01A and hAPRIL.03A are unique, all known commercially available anti-APRIL antibodies were tested for their ability to block the interaction of FLAG-hAPRIL to BCMA-Fc and TACI-Fc (FIGS. 3A and 3B). Blockade of receptor binding was studied using an ELISA. An ELISA plate was coated with 50 with 100 μl of BCMA-Fc at 1 μg/ml or with 100 μl of TACI-Fc at a concentration of 2 μg/ml in coating buffer and incubated overnight at 4° C. The plate was then washed with PBS/0.2% Tween and then incubated with for 1 hour at 37° C. with 100 μl PBS/5% BSA per well. The plate was then washed four times with PBS/0.2% Tween. In a separate plate APRIL monoclonal antibodies were pre-mixed with APRIL supernatant and incubated for 30 minutes on ice. Conditioned medium containing soluble APRIL was diluted 1 in 4 and mixed with an equal volume of PBS containing the antibodies titrated in doubling dilutions starting with 5 μg/ml. 100 μl of the pre-incubated mix was transferred to the ELISA plate and incubated for 2 hours at 37° C. The plate was then washed four times with PBS/0.2% Tween. Anti-Flag-HRP antibody was then diluted in PBS at a concentration of 1:1000 and then 100 μl of this added to each well and incubated for 1 hour at 37° C. […] The colour was allowed to develop and then the OD at 405 nm read on an ELISA plate reader. […]

mouse APRIL = biological target: T3, mouse APRIL (mouse, UniProt Q9D777 96-241, limits assumed); assay: BIAcore
T3 sequence (looked up): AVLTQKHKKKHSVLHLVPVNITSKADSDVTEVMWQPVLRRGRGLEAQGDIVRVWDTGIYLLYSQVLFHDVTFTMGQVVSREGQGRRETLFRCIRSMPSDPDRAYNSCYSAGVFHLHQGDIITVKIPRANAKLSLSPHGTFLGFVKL

[8] = biological target: T2, FLAG-hAPRIL (secreted form, supernatant …); assay: blocking ELISA: antibody pre-incubated with FLAG-hAPRIL, binding to coated TACI-Fc (competitor) detected
[9] = biological target: T2, FLAG-hAPRIL (secreted form, supernatant …); assay: blocking ELISA, FLAG-APRIL supernatant pre-mixed with titrated antibody, binding to BCMA-Fc coated at 1 µg/ml detected with anti-Flag-HRP [right graph]
Description: as §4

[10] = biological target: T2, FLAG-hAPRIL (secreted form, supernatant …); assay: blocking ELISA, FLAG-hAPRIL pre-incubated with titrated antibody, binding to coated TACI-Fc detected with anti-FLAG
Description: as §3

[11] = biological target: T2, FLAG-hAPRIL (secreted form, supernatant …); assay: blocking ELISA, FLAG-APRIL supernatant pre-mixed with titrated antibody, binding to coated TACI-Fc (sheet: coated at 1 µg/ml) detected with anti-Flag-HRP [left graph]
Description: as §2

| Molecule | EC50 [1] [nM] | Kd [2] [nM] | koff [2] [s⁻¹] | IC50 (read off the curve) [3] [µg/mL] | IC50 [4] [nM] | EC50 [5] [nM] | kon [6] [M⁻¹ s⁻¹] | IC50 (read off the curve) [7] [µg/mL] | binding result (mouse APRIL) | IC50 [8] [nM] | IC50 (read off the curve) [9] [µg/mL] | IC50 (read off the curve) [10] [µg/mL] | IC50 (read off the curve) [11] [µg/mL] |
| --- | --- | --- | --- | --- | --- | --- | --- | --- | --- | --- | --- | --- | --- |
| mouse anti-hAPRIL IgG1 Aprily-5 (Alexis) (antibody) | 1.7 | – | – | – | – | – | – | – | – | – | – | – | – |
| hAPRIL.01A (antibody, IgG1, V domains shown, Mouse antibody from a hybridoma, IgG1, kappa) VH: EVQLQQSGPELVKPGASVKMSCKASGYTFTSYVMHWVKQKPGQGLEWIGYINPYNDAPKYNEKFKGKATVTSDKSSGTAYMELSSLTSEDSAVYYCARGLGYALYYAMDYWGQGTSVTVSS VL: DIVMTQSQKFKSTSVGDRVSVTCKASQNVGNNVAWYQQKAGQSPKALISSASNRDSGVPDRFTGSGSGTDFTLTISNVQSEDLADYFCQQYNIYPFTFGSGTELEIK | – | 0.753 | 3.69e-05 | ~0.7 | 1.2 | 2.2 | 48900 | ~0.8 | no binding | 0.4 | ~0.9 | ~0.2 | ~0.7 |
